Measurements: patent publication US20250034601A1, “HETERODIMERIC BENZALDEHYDE SYNTHASE, METHODS OF PRODUCING, AND USES THEREOF” (Purdue Research Foundation, priority 2021, published 2025)

Assays:
[1] = Purified PhBS with short-chain fatty acyl-CoA substrates (GC-MS); assay type: biochemical; conditions: 1 mM fatty acyl-CoA, 28° C., 1 hour
Protocol: Given the peroxisomal localization of PhBS, it was also analyzed if purified PhBS could be involved in metabolism of short-chain fatty acyl-CoA esters. […] All reactions were carried out at 28° C. for 1 hour.

N. benthamiana leaves = test: Reconstitution of benzaldehyde biosynthetic pathway in N. benthamiana leaves, benzylalcohol formation; assay type: in vivo, Nicotiana benthamiana; conditions: 150 mM Phe feeding for 24 hours, after Viscozyme treatment; means ± SE, n=5
From the text: In addition, the complete benzaldehyde β-oxidative biosynthetic pathway was reconstituted in N. benthamiana by expressing together with the PhBS four additional genes encoding phenylalanine ammonia lyase 1 (PhPAL1), PhCNL, PhCHD and PhKAT. Klempien et al. (2012), supra; Qualley et al., Completion of the core 0-oxidative pathway of benzoic acid biosynthesis in plants. Proceedings of the National Acad of Sciences of the U.S.A. 109: 16383-16388 (2012); Moerkercke et al., A plant thiolase involved in benzoic acid biosynthesis and volatile benzenoid production, The Plant J. 60: 292-302 (2009).
The coding sequences of PhPAL1, PhCNL, PhCHD, PhKAT, PhBSα (SEQ ID NO: 1) and PhBSβ (SEQ ID NO: 2) were PCR amplified with gene-specific primers (see Table 1 of FIG. 24) from petunia flower cDNAs and cloned into binary vector pCNHP using ClonExpress II One Step Cloning Kit (Vazyme Biotech Co., Piscataway, NJ). After sequence verification, plasmids were transformed into Agrobacterium tumefaciens strain GV3101. Single colonies for each construct were picked and cultured at 28° C. in 3 mL of LB medium supplied with 50 mg/L rifampicin, 50 mg/L gentamycin and 50 mg/L kanamycin to an OD600 of about 2.0. Bacterial cultures were pelleted, washed with a 10 mM MgCl2 solution containing 200 μM acetosyringone, and incubated in the same solution for additional 2 hours at room temperature. […]

[2] = Substrate specificity of purified BS with benzoyl-CoA and hydroxycinnamoyl-CoA analogs (GC-MS); assay type: biochemical; conditions: 1:1 ratio between α and β subunits, NADPH; cinnamoyl-, para-coumaroyl-, caffeoyl-, feruloyl-, sinapoyl-CoA versus benzoyl-CoA
From the text: The response of internal standard in each run was set as 100%.
To analyze substrate specificity of PhBS, CoA esters were enzymatically synthesized from cinnamic acid, para-coumaric acid, caffeic acid, ferulic acid and sinapic acid using purified recombinant petunia 4-coumarate:CoA ligase (Ph4CL1) purified using the protocols described herein (FIG. 11B; triangle indicates the position of the Ph4CL1 protein). […] The experiment was repeated at least six times with similar results.
To test whether AtBS is involved in the biosynthesis of other aromatic aldehydes, hydroxycinnamoyl-CoA thioesters were incubated with purified AtBS enzyme, and the corresponding aldehyde formation was analyzed. Briefly, GC-MS analysis was performed of the products formed by AtBS from different hydroxycinnamoyl-CoA substrates. […] Shown in FIG. 22 are the combined EICs of mass units 106 (benzaldehyde), 128 (internal standard), 131 (cinnamaldehyde), and 178 (coniferaldehyde).

B1: PhBS: heterodimeric Petunia hybrida benzaldehyde synthase of PhBSα (SEQ ID NO: 1) and PhBSβ (SEQ ID NO: 2) subunits, 1:1 ratio (protein, listed as Petunia hybrida)
alpha: MEKQTQARFLEPWRDLKGKVVMVTGASSGIGLDLCLDLAKAGCKIIAAARRVDRLKSLCNQINAAADDDDDNNRAVAVELDVSANGDAIEAAVKEAWGAFGRIDALVNNAGVRGTVHSPLELTEEECHNTFRTNLTGTWLVSKYVCKFMRDAKQGGSVINISSIAGLNRGQLPGGLAYVSSKGAVNMVTKVMALELGVDKIRVNSISPGLFKSEITQGLIQKEWLNNVAMRTIPLRTHGNSADPALTSVVRYLIHDSSEYVSGNLFIVDAGATLPGVPIFSSL
beta: MENSGKKVLLTSNGDDICNNIAYHLAQRGCQLVLMGNESQLKSVAEMIKQSLGGSAAVEVVGLDMEEDREAAFEEAVDKAWKIFGKLDALVNCYSYEGKMQDPLQLIEEEFKKIVKINFMAGWYLMKCISKKMRDDKSGGSIVFLTSIIGAERGIYQGAAAYGSCLGGIQQLVRLAAIELGKHQIRVNGISRGLHLQDEYPKAVGLERAEKMTKEAAPLNRWLDVKKDLASTVIYLISDDSRYMTGTSIFVDGAQSLVRPRMRSYM
- product formed from hexanoyl-CoA [1]: only trace amounts of hexanal were detected
- benzylalcohol produced in infiltrated leaves (N. benthamiana leaves): 327.9±14.3 nmol·g FW^−1
- substrate specificity (aldehyde formation from CoA esters) [2]: strict substrate selectivity for benzoyl-CoA
